Test results as given in patent US20180273635A1 (Zymeworks, published 2018).

How the values were obtained:
Recombinant human HER2 [1] = target: T1, Recombinant human HER2 (human, UniProt P04626 23-652); experiment: SPR, variant captured on anti-human Fc, HER2 flowed, 25 C, post-SEC
T1 construct: extracellular domain; analyte of the SPR assays; also called HER2 ECD; ECD2 of HER2
Method: (§1) The affinity towards HER2 ECD of the samples was measured by SPR on a Biacore T200 as follows. Between 2000 and 4000 RU of anti-human Fc injected at concentration between 5 and 10 μg/ml was immobilized on a CM5 chip using standard amine coupling. Antigen-binding constructs were captured on the anti-human Fc (injected at concentration at 0.51 microg/mL in PBST, 1 min at 10 microl/min) at response levels ranging from 120-270 RU. […] HER2 dilutions were analyzed in duplicates. Sensograms were fit globally to a 1: 1 Langmuir binding model, using the software provided with the Biacore T200. All experiments were conducted at 25° C.
(§2) The affinity of antigen-binding constructs in OA format was determined by SPR following protein A purification. […] Antigen-binding constructs in FSA format were purified by protein A affinity and SEC prior to assessment of affinity by SPR.

Recombinant human HER2 [2] = target: T1, Recombinant human HER2; experiment: SPR, variant captured on anti-human Fc, HER2 flowed, 25 C, pre-SEC;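 further: HER2 extracellular domain binding on Biacore T200, CM5 chip with amine-coupled anti-human Fc, duplicate antigen dilutions, global 1:1 Langmuir fit, measured after protein A purification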
Method: as §1, §2

Recombinant human HER2 [3] = target: T1, Recombinant human HER2; experiment: SPR, pre-SEC; ratio to WT v10013;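 further: SPR on Biacore T200 at 25 °C, constructs captured via anti-human Fc on CM5 chip, HER2 ECD as analyte, 1:1 Langmuir global fit, after protein A purification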
Method: as §1, §2

Recombinant human HER2 [4] = target: T1, Recombinant human HER2; experiment: SPR, post-SEC; ratio to WT v10013
Method: as §1, §2

Recombinant human HER2 [5] = target: T2, Recombinant human HER2 (human, UniProt P04626 23-652); experiment: calculated from the SPR Ka ratio to WT v10013;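 further: SPR at 25 °C with constructs captured on an anti-human Fc chip and HER2 extracellular domain as analyte, kinetics fitted to a 1:1 Langmuir model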
T2 construct: extracellular domain; Analyte of the SPR assays; also called HER2 ECD; ECD2 of HER2
Method: as §1

Recombinant human HER2 [6] = target: T2, Recombinant human HER2; experiment: SPR, 25 C; Ka ratio to WT v10013;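 further: constructs captured via anti-human Fc on CM5 chip, HER2 ECD as analyte in duplicate dilutions, sensorgrams globally fit to 1:1 Langmuir model on Biacore T200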
Recombinant human HER2 [7] = target: T2, Recombinant human HER2; experiment: SPR, Biacore T200, 25 C; variant captured on anti-human Fc, HER2 flowed;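 further: HER2 extracellular domain analyte run as duplicate dilutions over amine-coupled anti-Fc on a CM5 chip, rates from global sensorgram fitting with a 1:1 Langmuir model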
Method: as §1

Binder	Kd (Recombinant human HER2 [1]) [nM]	Kd (Recombinant human HER2 [2]) [nM]	Ka, mut/Ka, WT (Recombinant human HER2 [3])	Ka, mut/Ka, WT (Recombinant human HER2 [4])	ΔΔG (Recombinant human HER2 [5]) [kcal/mol]	Ka, mut/Ka, WT (Recombinant human HER2 [6]) [fold]	Kd (Recombinant human HER2 [7]) [nM]	koff (Recombinant human HER2 [7]) [s⁻¹]	kon (Recombinant human HER2 [7]) [M⁻¹ s⁻¹]
variant 9996 (antibody, OA format; also called v9996) heavy: EVQLVESGGGLVQPGGSLRLSCAASGFTFADYTMDWVRQAPGKGLEWVGDVNPNSGGSIYNQRFKGRFTFSVDRSKNTLYLQMNSLRAEDTAVYYCARNLGPSFYFDYWGQGTLVTVSSASTKGPSVFPLAPSSKSTSGGTAALGCLVKDYFPEPVTVSWNSGALTSGVHTFPAVLQSSGLYSLSSVVTVPSSSLGTQTYICNVNHKPSNTKVDKKVEPKSCDKTHTCPPCPAPELLGGPSVFLFPPKPKDTLMISRTPEVTCVVVDVSHEDPEVKFNWYVDGVEVHNAKTKPREEQYNSTYRVVSVLTVLHQDWLNGKEYKCKVSNKALPAPIEKTISKAKGQPREPQVYVYPPSRDELTKNQVSLTCLVKGFYPSDIAVEWESNGQPENNYKTTPPVLDSDGSFALVSKLTVDKSRWQQGNVFSCSVMHEALHNHYTQKSLSLSPG light: not shown Fc: not shown	1.9	2							
variant 12480 (antibody, human IgG1, kappa, OA pertuzumab variant, HC T30Q (Kabat); also called v12480) heavy: EVQLVESGGGLVQPGGSLRLSCAASGFTFQDYTMDWVRQAPGKGLEWVADVNPNSGGSIYNQRFKGRFTLSVDRSKNTLYLQMNSLRAEDTAVYYCARNLGPSFYFDYWGQGTLVTVSSASTKGPSVFPLAPSSKSTSGGTAALGCLVKDYFPEPVTVSWNSGALTSGVHTFPAVLQSSGLYSLSSVVTVPSSSLGTQTYICNVNHKPSNTKVDKKVEPKSCDKTHTCPPCPAPELLGGPSVFLFPPKPKDTLMISRTPEVTCVVVDVSHEDPEVKFNWYVDGVEVHNAKTKPREEQYNSTYRVVSVLTVLHQDWLNGKEYKCKVSNKALPAPIEKTISKAKGQPREPQVYVYPPSRDELTKNQVSLTCLVKGFYPSDIAVEWESNGQPENNYKTTPPVLDSDGSFALVSKLTVDKSRWQQGNVFSCSVMHEALHNHYTQKSLSLSPG light: not shown not shown	4.4	4.2	4.6	4.7					
variant 12478 (antibody, human IgG1, kappa, OA pertuzumab variant, HC T30Y (Kabat); also called v12478) heavy: EVQLVESGGGLVQPGGSLRLSCAASGFTFYDYTMDWVRQAPGKGLEWVADVNPNSGGSIYNQRFKGRFTLSVDRSKNTLYLQMNSLRAEDTAVYYCARNLGPSFYFDYWGQGTLVTVSSASTKGPSVFPLAPSSKSTSGGTAALGCLVKDYFPEPVTVSWNSGALTSGVHTFPAVLQSSGLYSLSSVVTVPSSSLGTQTYICNVNHKPSNTKVDKKVEPKSCDKTHTCPPCPAPELLGGPSVFLFPPKPKDTLMISRTPEVTCVVVDVSHEDPEVKFNWYVDGVEVHNAKTKPREEQYNSTYRVVSVLTVLHQDWLNGKEYKCKVSNKALPAPIEKTISKAKGQPREPQVYVYPPSRDELTKNQVSLTCLVKGFYPSDIAVEWESNGQPENNYKTTPPVLDSDGSFALVSKLTVDKSRWQQGNVFSCSVMHEALHNHYTQKSLSLSPG light: not shown not shown	5.8	5.6	3.5	3.6					
variant 12490 (antibody, human IgG1, kappa, OA pertuzumab variant, HC G56Y (Kabat); also called v12490) heavy: EVQLVESGGGLVQPGGSLRLSCAASGFTFTDYTMDWVRQAPGKGLEWVADVNPNSGYSIYNQRFKGRFTLSVDRSKNTLYLQMNSLRAEDTAVYYCARNLGPSFYFDYWGQGTLVTVSSASTKGPSVFPLAPSSKSTSGGTAALGCLVKDYFPEPVTVSWNSGALTSGVHTFPAVLQSSGLYSLSSVVTVPSSSLGTQTYICNVNHKPSNTKVDKKVEPKSCDKTHTCPPCPAPELLGGPSVFLFPPKPKDTLMISRTPEVTCVVVDVSHEDPEVKFNWYVDGVEVHNAKTKPREEQYNSTYRVVSVLTVLHQDWLNGKEYKCKVSNKALPAPIEKTISKAKGQPREPQVYVYPPSRDELTKNQVSLTCLVKGFYPSDIAVEWESNGQPENNYKTTPPVLDSDGSFALVSKLTVDKSRWQQGNVFSCSVMHEALHNHYTQKSLSLSPG light: not shown not shown	7.8	7.7	2.5	2.7					
variant 12491 (antibody, human IgG1, kappa, OA pertuzumab variant, HC G56F (Kabat); also called v12491) heavy: EVQLVESGGGLVQPGGSLRLSCAASGFTFTDYTMDWVRQAPGKGLEWVADVNPNSGFSIYNQRFKGRFTLSVDRSKNTLYLQMNSLRAEDTAVYYCARNLGPSFYFDYWGQGTLVTVSSASTKGPSVFPLAPSSKSTSGGTAALGCLVKDYFPEPVTVSWNSGALTSGVHTFPAVLQSSGLYSLSSVVTVPSSSLGTQTYICNVNHKPSNTKVDKKVEPKSCDKTHTCPPCPAPELLGGPSVFLFPPKPKDTLMISRTPEVTCVVVDVSHEDPEVKFNWYVDGVEVHNAKTKPREEQYNSTYRVVSVLTVLHQDWLNGKEYKCKVSNKALPAPIEKTISKAKGQPREPQVYVYPPSRDELTKNQVSLTCLVKGFYPSDIAVEWESNGQPENNYKTTPPVLDSDGSFALVSKLTVDKSRWQQGNVFSCSVMHEALHNHYTQKSLSLSPG light: not shown not shown	10	9.1	2.1	2.1					
Variant 14062 (antibody, human IgG1, kappa, OA (one-armed) format; clones 8789, 7919, 4372; also called v14062) heavy: EVQLVESGGGLVQPGGSLRLSCAASGFTFQDYTMDWVRQAPGKGLEWVADVNPNSGYSIYNQRFKGRFTLSVDRSKNTLYLQMNSLRAEDTAVYYCARNLGPWFYFDYWGQGTLVTVSSASTKGPSVFPLAPSSKSTSGGTAALGCLVKDYFPEPVTVSWNSGALTSGVHTFPAVLQSSGLYSLSSVVTVPSSSLGTQTYICNVNHKPSNTKVDKKVEPKSCDKTHTCPPCPAPELLGGPSVFLFPPKPKDTLMISRTPEVTCVVVDVSHEDPEVKFNWYVDGVEVHNAKTKPREEQYNSTYRVVSVLTVLHQDWLNGKEYKCKVSNKALPAPIEKTISKAKGQPREPQVYVYPPSRDELTKNQVSLTCLVKGFYPSDIAVEWESNGQPENNYKTTPPVLDSDGSFALVSKLTVDKSRWQQGNVFSCSVMHEALHNHYTQKSLSLSPG light: not shown not shown					-1.9	26	0.63	3.5e-05	56000
variant 12489 (antibody, human IgG1, kappa, OA pertuzumab variant, HC G56M (Kabat); also called v12489) heavy: EVQLVESGGGLVQPGGSLRLSCAASGFTFTDYTMDWVRQAPGKGLEWVADVNPNSGMSIYNQRFKGRFTLSVDRSKNTLYLQMNSLRAEDTAVYYCARNLGPSFYFDYWGQGTLVTVSSASTKGPSVFPLAPSSKSTSGGTAALGCLVKDYFPEPVTVSWNSGALTSGVHTFPAVLQSSGLYSLSSVVTVPSSSLGTQTYICNVNHKPSNTKVDKKVEPKSCDKTHTCPPCPAPELLGGPSVFLFPPKPKDTLMISRTPEVTCVVVDVSHEDPEVKFNWYVDGVEVHNAKTKPREEQYNSTYRVVSVLTVLHQDWLNGKEYKCKVSNKALPAPIEKTISKAKGQPREPQVYVYPPSRDELTKNQVSLTCLVKGFYPSDIAVEWESNGQPENNYKTTPPVLDSDGSFALVSKLTVDKSRWQQGNVFSCSVMHEALHNHYTQKSLSLSPG light: not shown not shown	13	14	1.4	1.6					
variant 12479 (antibody, human IgG1, kappa, OA pertuzumab variant, HC T30N (Kabat); also called v12479) heavy: EVQLVESGGGLVQPGGSLRLSCAASGFTFNDYTMDWVRQAPGKGLEWVADVNPNSGGSIYNQRFKGRFTLSVDRSKNTLYLQMNSLRAEDTAVYYCARNLGPSFYFDYWGQGTLVTVSSASTKGPSVFPLAPSSKSTSGGTAALGCLVKDYFPEPVTVSWNSGALTSGVHTFPAVLQSSGLYSLSSVVTVPSSSLGTQTYICNVNHKPSNTKVDKKVEPKSCDKTHTCPPCPAPELLGGPSVFLFPPKPKDTLMISRTPEVTCVVVDVSHEDPEVKFNWYVDGVEVHNAKTKPREEQYNSTYRVVSVLTVLHQDWLNGKEYKCKVSNKALPAPIEKTISKAKGQPREPQVYVYPPSRDELTKNQVSLTCLVKGFYPSDIAVEWESNGQPENNYKTTPPVLDSDGSFALVSKLTVDKSRWQQGNVFSCSVMHEALHNHYTQKSLSLSPG light: not shown not shown	4.4	5	3.9	4.7					
variant 12482 (antibody, human IgG1, kappa, OA pertuzumab variant, HC T30F (Kabat); also called v12482) heavy: EVQLVESGGGLVQPGGSLRLSCAASGFTFFDYTMDWVRQAPGKGLEWVADVNPNSGGSIYNQRFKGRFTLSVDRSKNTLYLQMNSLRAEDTAVYYCARNLGPSFYFDYWGQGTLVTVSSASTKGPSVFPLAPSSKSTSGGTAALGCLVKDYFPEPVTVSWNSGALTSGVHTFPAVLQSSGLYSLSSVVTVPSSSLGTQTYICNVNHKPSNTKVDKKVEPKSCDKTHTCPPCPAPELLGGPSVFLFPPKPKDTLMISRTPEVTCVVVDVSHEDPEVKFNWYVDGVEVHNAKTKPREEQYNSTYRVVSVLTVLHQDWLNGKEYKCKVSNKALPAPIEKTISKAKGQPREPQVYVYPPSRDELTKNQVSLTCLVKGFYPSDIAVEWESNGQPENNYKTTPPVLDSDGSFALVSKLTVDKSRWQQGNVFSCSVMHEALHNHYTQKSLSLSPG light: not shown not shown	7.3	7.7	2.5	2.9					
Variant 14063 (antibody, human IgG1, kappa, OA (one-armed) format; clones 8788, 8781, 4372; also called v14063) heavy: EVQLVESGGGLVQPGGSLRLSCAASGFTFQDYTMDWVRQAPGKGLEWVADVNPNSGYSIYNQRFKGRFTLSVDRSKNTLYLQMNSLRAEDTAVYYCARNLGPSFYFDYWGQGTLVTVSSASTKGPSVFPLAPSSKSTSGGTAALGCLVKDYFPEPVTVSWNSGALTSGVHTFPAVLQSSGLYSLSSVVTVPSSSLGTQTYICNVNHKPSNTKVDKKVEPKSCDKTHTCPPCPAPELLGGPSVFLFPPKPKDTLMISRTPEVTCVVVDVSHEDPEVKFNWYVDGVEVHNAKTKPREEQYNSTYRVVSVLTVLHQDWLNGKEYKCKVSNKALPAPIEKTISKAKGQPREPQVYVYPPSRDELTKNQVSLTCLVKGFYPSDIAVEWESNGQPENNYKTTPPVLDSDGSFALVSKLTVDKSRWQQGNVFSCSVMHEALHNHYTQKSLSLSPG light: not shown not shown					-2.9	~124	~0.13	~8.3e-06	63000
